Values quoted from earlier work in paper PMC4271846.

Target: tau (Homo sapiens) (UniProt P10636)
Assay: SPR

## tau (from UniProt P10636)
  Kd: 46 µM
